# Patent US20250051455A1 (Hoffmann-La Roche, published 2025)
# B1: HLA-G-0031-0104 (humanized variant of HLA-G-0031) (antibody, V domains shown)
# VH: QVQLVQSGAEVKKPGASVKVSCKASGYTFTDYWVSWVRQAPGQRLEWMGEISPNSGASNFDENFQGRVTITRDTSASTAYMELSSLRSEDTAVYYCTRSSHGSFRWFAYWGQGTLVTVSS
# VL: DIQMTQSPSSLSASVGDRVTITCRASSSVSSNHLHWYQQKPGKAPKFLIYSTSQRASGVPSRFSGSGSGTEFTLTISSLQPEDFATYYCQQGSSNPYTFGQGTKLEIK
# notes: Humanized variant (VH framework IGHV1-3, VL framework IGKV1-17 with back-mutation R46F, Kabat)
# Biological target: T1, recombinant soluble human HLA-G β2M MHC class I complex, monomer (human)
# T1 construct: His tagged; biotinylated where coated on streptavidin plates, non-biotinylated in SPR; also called HLA-G-0003; wt HLA-G (monomer)
# Test: SPR Biacore T200, antibody captured via anti-Fc, HLA-G monomer as analyte, 25 C
# Method: Binding kinetics of anti-HLA-G antibodies to human HLA-G, human HLA-G degrafted and human HLA-A2 were investigated by surface plasmon resonance using a BIACORE T200 instrument (GE Healthcare). All experiments were performed at 25° C. using PBS Buffer (pH 7.4+0.05% Tween20) as running buffer and PBS Buffer (+0.1% BSA) as dilution buffer. Anti-human Fc (JIR009-005-098, Jackson) or anti-rat Fc (JIR112-005-071, Jackson) or anti-Mouse Fc (JIR115-005-071, Jackson) antibodies were immobilized on a Series S CM5 Sensor Chip (GE Healthcare) at pH 5.0 by using an amine coupling kit supplied by GE Healthcare. Anti-HLA-G antibodies were captured on the surface leading to a capturing response of 50-200 RU. HLA-G molecules were injected for 180 s at 30 μl/min with concentrations from 2.5 up to 800 nM (2×1:2 and 4×1:3 dilution series) onto the surface (association phase). The dissociation phase was monitored for 300-600 sec by washing with running buffer. The surface was regenerated by injecting H3PO4 (0,85%) for 60+30 seconds for anti-human Fc capturing antibodies, glycine pH1,5 for 60 seconds and glycine pH2,0 for 60 seconds for anti-rat Fc capturing antibodies, H3PO4 (0,85%) for 80+60 seconds for anti-mouse Fc capturing antibodies. Bulk refractive index differences were corrected by subtracting the response obtained from a mock surface. Blank injections were subtracted (double referencing). The derived curves were fitted to a 1:1 Langmuir binding model using the BIAevaluation software.
# The above table summarizes the antibody affinities and t½ values against wt and degrafted HLA-G as assessed by Surface plasmon resonance (Biacore) analysis. Binding kinetics of anti-HLA-G antibodies to human HLA-G and human HLA-G degrafted were investigated by surface plasmon resonance using a BIACORE T200 instrument (GE Healthcare). All experiments were performed at 25° C. using PBS Buffer (pH 7.4+0.05% Tween20) as running buffer and PBS Buffer (+0.1% BSA) as dilution buffer. Anti-human Fc (JIR009-005-098, Jackson) or anti-rat Fc (JIR112-005-071, Jackson) or anti-Mouse Fc (JIR115-005-071, Jackson) antibodies were immobilized on a Series S CM5 Sensor Chip (GE Healthcare) at pH 5.0 by using an amine coupling kit supplied by GE Healthcare.
binder,measurement,value
B1,Kd,24 nM
same,koff,0.002 s⁻¹
same,kon,83000 M⁻¹ s⁻¹
same,t 1/2,6 min
